Data set [1] deals with membrane attack complex (MAC). The class given is biochemical, Human. As to the method: (§1) Synthetic biomarkers (6 nM by NP, 300 nM by peptide) were incubated in PBS+1% bovine serum albumin (BSA; Sigma) at 37° C. with murine Granzyme B (0.2 μM, Peprotech), human thrombin (HaemTech), mouse thrombin (HaemTech), mouse plasmin (HaemTech), Clr (Sigma), Cls (Sigma), Factor D (Sigma), Factor I (Sigma), MASP2 (Biomatik). Sample fluorescence were measured for 60 minutes using Cytation 5 plate reader (Biotek). To optimize GzmB substrate, a library of potential substrates was synthesized by Tufts University Core Facility peptide synthesis service and conjugated to IONPs. Cleavage assays of nanoparticles decorated with these substrates with recombinant GzmB were performed, and data was fitted to compare initial cleavage velocities. To determine Michaelis-Menten constants, cleavage assays with GzmB were performed at different substrate concentrations. To initiate coagulation cascade, citrated plasma was mixed with synthetic biomarkers before addition of calcium chloride (15 mM, Sigma). To initiate complement activation, Control Human Serum (Sigma) was mixed with synthetic biomarkers before addition of Heat Aggregated Gamma Globulin (HAGG; Quidel) per the manufacturer's protocol. After measuring fluorescence for 1 hour, supernatants were collected and measured for formation of MAC complex using Micro Vue CH50 Eq EIA Kit (Quidel).

The conditions of data set [2]: in plasma, DLS.
Source text: DLS measurements of synthetic biomarkers were done in PBS or mouse plasma at RT using Zetasizer Nano ZS (Malvern).
The conditions of data set [3]: in vivo.
The subject of data set [4] is T cells from skin graft mice with BALB/c donor splenocytes. Nature of the data set: NP assay sensing alloreactive T cell killing (coculture supernatants). The class given is cell-based, mouse. The following applies: cocultures containing T cells from mice bearing allografts.
Procedure: (§3) To sense transgenic T cell killing, CD8+OT1 T cells were isolated and activated per above protocol. On day 5 post activation, 1x10^6 OT1 T cells were coincubated with 1x10^6 EL4 or EG7-OVA target cells for 2 hours at 37° C. Coculture supernatants were mixed with synthetic biomarkers (2 nM by NP, 100 nM by peptides) and fluorescence were monitored for 1 hour at 37° C. To sense alloreactive T cell killing, on day 7 post-transplant, CD8 T cells were isolated from splenocytes and lymphocytes of skin graft mice. 5×10^5 CD8 T cells from skin graft mice were restimulated with 5×10^5 splenocytes from BALB/c Mice (Charles River) for 6 hours at 37° C. Coculture supernatants were mixed with synthetic biomarkers (2 nM by NP, 100 nM by peptides) and fluorescence were monitored for 2 hours at 37° C.
Data set [5] concerns OT1 T cells killing EG7-OVA target cells.
Procedure: as §3
The target of data set [6] is T1, GzmB (Mus musculus, UniProt P04187).
T1 construct: cleaved by GzmB secreted by alloreactive T cells; endogenous in cells; host or cells: alloreactive CD8 T cells of C57BL/6 recipient mice bearing BALB/c skin grafts
T1 sequence (P04187 21-247): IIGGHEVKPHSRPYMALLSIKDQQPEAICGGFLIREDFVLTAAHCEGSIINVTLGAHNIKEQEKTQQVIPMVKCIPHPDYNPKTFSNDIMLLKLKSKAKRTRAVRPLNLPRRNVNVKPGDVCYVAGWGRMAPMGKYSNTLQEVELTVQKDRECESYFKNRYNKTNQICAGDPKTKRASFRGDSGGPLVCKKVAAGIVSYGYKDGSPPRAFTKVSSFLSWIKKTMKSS
Kind of data set: Tracking in vivo GzmB cleavage by near infra-red imaging in skin graft mice. The protocol:
(§2) To track cleaved fragments after in vivo GzmB cleavage, on day 7 post-transplant, VT750-labelled synthetic biomarkers (10 nmol by peptides) were administered to skin graft mice. Major organs were excised and imaged with Odyssey CLx Imaging System (LI-COR) while mouse bladders were imaged with IVIS Spectrum CT Imaging System (PerkinElmer) after 90 minutes. All urinalysis experiments were done in paired setup. 4 days before and 7 days after surgeries, skin graft mice were administered with FITC-labelled Synthetic biomarkers (10 nmol by peptides). Urine were collected after 90 minutes by placing mice over 96-well plates. FITC in urine was purified by a magnetic separation assay using Dynabeads (Thermo, 65501) coated with anti-FITC (GeneTex, GTX10257). Fluorescent signals were measured with Cytation 5 Plate Reader (Biotek). Concentrations of FITC were calculated using a free FITC ladder and normalized with urine volume. For CD8 depletion study, mice were given anti-mouse CD8 (clone: 53-6.7, BioXCell) for 3 consecutive days following with booster shots every 3 days after. Flow cytometry analysis of splenocytes and lymphocytes were performed with anti-mouse CD3 (clone: 17A2, Biolegend), anti-mouse CD4 (clone: RM4-5, Biolegend), anti-mouse CD8 (clone: KT15, Serotec) to confirm success of depletion.

Data set [7] concerns proteases in the coagulation and complement cascades. Nature of the data set: Specificity: cleavage by key recombinant proteases and activated coagulation and complement cascades. It counts as biochemical. The following applies: recombinant proteases; plasma + Ca2+; serum + HAGG; fluorescence. The protocol:
as §1

Data set [8] addresses T1, GzmB. Kind of data set: Urinary prediction of acute cellular rejection in skin graft mouse model. It counts as in vivo, mice. As to the method:
as §2

The next data set concerns the target T2, murine Granzyme B (Mus musculus, UniProt P04187).
T2 construct: purchased Peprotech
T2 sequence (P04187 21-247): T1 sequence (P04187 21-247)
Kind of data set: In vitro protease cleavage assay with recombinant GzmB. The class given is biochemical. To be noted: substrate conjugated to IONPs, library of 13 candidate substrates. As to the method: as §1

These results are taken from US12692533B2, “Methods and compositions for noninvasive detection of organ transplant rejection” (Georgia Tech Research Corporation, priority 2016, dated 2026).

Square brackets hold non-standard residues; d marks the D form. Ends that are not written are not given here.

For “synthetic biomarkers: PEG-coated iron oxide nanoparticles conjugated with GzmB peptide substrates carrying a fluorescent reporter (AIEFDSG[dC]; not fully specified; printed as AIEFDSGc; also: conjugated to PEG-coated iron oxide nanoparticle via Cys thiol and SIA, FITC reporter, position not given here)”, the “formation of membrane attack complex (MAC)” value in data set [1] is given as “not detected”. This substance also displayed a Z-average in data set [2] of 47 nm. Also, the tolerability entry in data set [3] is reported as “well tolerated”. For the same substance, the activation kinetics result in data set [4] is listed as “Increased activation kinetics”. The “sensing of cytotoxic signal (fluorescence)” value in data set [5] was “amplified cytotoxic signal”. Besides, in data set [5] (coculture supernatant), the “correlation of initial velocity of probe activation with secretory GzmB” value is “strongly correlated”. Besides, the “full body imaging bladder fluorescent signals” value with GzmB [6] (allograft vs isograft mice) was “only detected fluorescent signals from the bladders of allograft mice”. Moreover, the “GzmB activity (fluorescent signal) in kidney, allograft mice with respect to isograft mice” value with GzmB [6] (day 7 post-transplant) is recorded as 3 fold. Besides, the “activation by proteases in the coagulation and complement cascades” value in [7] is “not activated”. Also, the “ROC area under the curve (AUC)” value with GzmB [8] (accepting isografts vs rejecting allografts) was 0.969. The “post-graft urine signals compared to pre-graft signals” value in the data set with GzmB [8] (allograft mice, day 7 vs day -4) is listed as “more than 2 fold”. In addition, in the data set with GzmB [8] (naïve mice, isograft mice, allograft mice depleted of CD8 T cells), the “post-graft urine signals with respect to pre-graft signals” value is reported as “did not detect significant elevation”.
On to AIEFDSGc (AIEFDSG[dC]), for which the “rate of cleavage by recombinant GzmB” value with murine Granzyme B is on record as “high rate of cleavage”; in the data set with murine Granzyme B (listed as AIEFD|SGc) it was “highest rate of cleavage”.
